Measurements published in article PMC4969796 (The Journal of General Physiology, 2016).

Biological target: the molecule itself
Test: SDS-PAGE

B1: L24C/R117C KcsA (before chymotrypsin) (natural protein)
chain: MPPMLSGLLARLVKLLLGRHGSACHWRAAGAATVLLVIVLLAGSYLAVLAERGAPGAQLITYPRALWWSVETATTVGYGDLYPVTLWGRLVAVVVMVAGITSFGLVTAALATWFVGCEQERRGHFVRHSEKAAEEAYTRTTRALHERFDRLERMLDDNRR
  stoichiometry N: 4
